From IntAct's records for PubMed 8626665

B1: Transcription initiation factor IIA subunit 2 (Homo sapiens), P52657 (parent)
chain: MAYQLYRNTTLGNSLQESLDELIQSQQITPQLALQVLLQFDKAINAALAQRVRNRVNFRGSLNTYRFCDNVWTFVLNDVEFREVTELIKVDKVKIVACDGKNTGSNTTE
B2: Transcription initiation factor IIA subunit 2 (Homo sapiens), P52657 (parent)
chain: B1 chain
partner: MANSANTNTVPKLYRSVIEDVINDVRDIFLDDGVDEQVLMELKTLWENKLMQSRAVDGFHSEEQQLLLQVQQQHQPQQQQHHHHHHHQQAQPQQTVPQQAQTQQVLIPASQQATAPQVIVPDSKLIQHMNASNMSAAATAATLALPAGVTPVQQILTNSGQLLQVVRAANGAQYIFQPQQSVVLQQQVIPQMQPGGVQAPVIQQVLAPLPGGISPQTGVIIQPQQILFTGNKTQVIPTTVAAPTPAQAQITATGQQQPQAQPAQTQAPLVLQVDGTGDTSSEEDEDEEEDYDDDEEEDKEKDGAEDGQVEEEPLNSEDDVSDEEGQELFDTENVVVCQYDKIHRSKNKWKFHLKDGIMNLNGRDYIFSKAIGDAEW

Variants of: B1
Details: with tbp_human TBP

Variant	effect of a mutation on the interaction
MAYQLYRNTTLGNSLQESLAELIQSQQITPQLALQVLLQFDKAINAALAQRVRNRVNFRGSLNTYRFCDNVWTFVLNDVEFREVTELIKVDKVKIVACDGKNTGSNTTE [D20A]	decreasing interaction
MAYQLYRNTTLGNSLQESLDELIQSQQITPQLALQVLLQFDKAINAALAQRVRNRVNFRGSLNTARFCDNVWTFVLNDVEFREVTELIKVDKVKIVACDGKNTGSNTTE [Y65A]	decreasing interaction

Variants of: B2
Details: with tf2aa_human GTF2A1, P52655

Variant	effect of a mutation on the interaction
MAYQLYRNTTLGNSLQESLDELIQSQQITPQLALQVLLQFAKAINAALAQRVRNRVNFRGSLNTYRFCDNVWTFVLNDVEFREVTELIKVDKVKIVACDGKNTGSNTTE [D41A]	decreasing interaction
MAYQLYRNTTLGNSLQESLDELIQSQQITPQLALQVLLQFDAAINAALAQRVRNRVNFRGSLNTYRFCDNVWTFVLNDVEFREVTELIKVDKVKIVACDGKNTGSNTTE [K42A]	decreasing interaction
MAYQLYRNTTLGNSLQESLDELIQSQQITPQLALQVLLQFDKAINAALAQRVRNRVNFRGSLNTYRFCDNVWTFVLNDVEFREVTELIKVDKVKIVACDGKNTGSNTTA [E109A]	decreasing interaction
MAYQLYRNTTLGNSLQESLDELIQSQQITPQLALQVLLQADKAINAALAQRVRNRVNFRGSLNTYRFCDNVWTFVLNDVEFREVTELIKVDKVKIVACDGKNTGSNTTE [F40A]	decreasing interaction
